Source: patent US20150183880A1

Tests used:
[1] = biological target: recombinant human IGF-1R (R&D Systems, Catalog #391-GR), extracellular domain (human) (UniProt P08069); test: rhIGF-1R-coated beads; competitor unlabeled 3B7
[2] = biological target: recombinant human IGF-1R (R&D Systems, Catalog #391-GR), extracellular domain (human) (UniProt P08069); test: rhIGF-1R-coated beads; competitor unlabeled hR1
[3] = biological target: recombinant human IGF-1R (R&D Systems, Catalog #391-GR), extracellular domain (human) (UniProt P08069); test: rhIGF-1R-coated beads; competitor unlabeled 2C8
[4] = biological target: recombinant human IGF-1R (R&D Systems, Catalog #391-GR), extracellular domain (human) (UniProt P08069); test: rhIGF-1R-coated beads; competitor unlabeled αIR-3
[5] = biological target: recombinant human IGF-1R (R&D Systems, Catalog #391-GR), extracellular domain (human) (UniProt P08069); test: rhIGF-1R-coated beads; competitor unlabeled cR1
[6] = biological target: recombinant human IGF-1R (R&D Systems, Catalog #391-GR), extracellular domain (human) (UniProt P08069); test: rhIGF-1R-coated beads; competitor unlabeled 1H7
[7] = biological target: recombinant human IGF-1R (R&D Systems, Catalog #391-GR), extracellular domain (human) (UniProt P08069); test: rhIGF-1R-coated beads; competitor unlabeled MAB391
[8] = biological target: recombinant human IGF-1R (R&D Systems, Catalog #391-GR), extracellular domain (human) (UniProt P08069); test: rhIGF-1R-coated beads; competitor unlabeled R1
[9] = biological target: recombinant human IGF-1R (R&D Systems, Catalog #391-GR), extracellular domain (human) (UniProt P08069); test: rhIGF-1R-coated beads; competitor unlabeled 24-57
[10] = biological target: recombinant human IGF-1R (R&D Systems, Catalog #391-GR), extracellular domain (human) (UniProt P08069); test: rhIGF-1R-coated beads; competitor unlabeled 24-60
[11] = biological target: recombinant human IGF-1R (R&D Systems, Catalog #391-GR), extracellular domain (human) (UniProt P08069); test: rhIGF-1R-coated beads; competitor unlabeled 24-31
[12] = biological target: recombinant human IGF-1R (R&D Systems, Catalog #391-GR), extracellular domain (human) (UniProt P08069); test: rhIGF-1R-coated beads; competitor unlabeled 17-69
[13] = biological target: recombinant human IGF-1R (R&D Systems, Catalog #391-GR), extracellular domain (human) (UniProt P08069); test: rhIGF-1R-coated beads; competitor unlabeled 1-2
[14] = biological target: IGF-1R and EGP-1 together on cancer cell lines (MCF-7, DU-145, ME-180); test: flow cytometry (FACScan), MCF-7 cells; control
[15] = biological target: EGP-1 expressed on cancer cell lines (MCF-7, DU-145, ME-180) (UniProt P09758); test: flow cytometry (FACScan), DU145 cells
[16] = biological target: EGP-1 expressed on cancer cell lines (MCF-7, DU-145, ME-180) (UniProt P09758); test: flow cytometry (FACScan), MCF-7 cells
[17] = biological target: EGP-1 expressed on cancer cell lines (MCF-7, DU-145, ME-180) (UniProt P09758); test: flow cytometry (FACScan), ME-180 cells
[18] = biological target: IGF-1R expressed on cancer cell lines (MCF-7, MCF-7L, CaPan1, DU-145, ME-180, Hep G2, HT-29, LNCaP) (human) (UniProt P08069); test: 125I-IGF-1 binding to MCF-7L cells with antibody at 10 ng/mL
[19] = biological target: IGF-1R expressed on cancer cell lines (MCF-7, MCF-7L, CaPan1, DU-145, ME-180, Hep G2, HT-29, LNCaP) (human) (UniProt P08069); test: 125I-IGF-1 binding to MCF-7L cells with antibody at 100 ng/mL
[20] = biological target: IGF-1R expressed on cancer cell lines (MCF-7, MCF-7L, CaPan1, DU-145, ME-180, Hep G2, HT-29, LNCaP) (human) (UniProt P08069); test: 125I-IGF-1 binding to MCF-7L cells with antibody at 0 ng/mL (baseline)
[21] = biological target: IGF-1R expressed on cancer cell lines (MCF-7, MCF-7L, CaPan1, DU-145, ME-180, Hep G2, HT-29, LNCaP) (human) (UniProt P08069); test: 125I-IGF-1 binding to MCF-7L cells with antibody at 1000 ng/mL
[22] = biological target: IGF-1R and EGP-1 together on cancer cell lines (MCF-7, DU-145, ME-180); test: flow cytometry (FACScan), MCF-7 cells; structural control

Sequence of EGP-1 expressed on cancer cell lines (MCF-7, DU-145, ME-180) (P09758 27-323 limits assumed): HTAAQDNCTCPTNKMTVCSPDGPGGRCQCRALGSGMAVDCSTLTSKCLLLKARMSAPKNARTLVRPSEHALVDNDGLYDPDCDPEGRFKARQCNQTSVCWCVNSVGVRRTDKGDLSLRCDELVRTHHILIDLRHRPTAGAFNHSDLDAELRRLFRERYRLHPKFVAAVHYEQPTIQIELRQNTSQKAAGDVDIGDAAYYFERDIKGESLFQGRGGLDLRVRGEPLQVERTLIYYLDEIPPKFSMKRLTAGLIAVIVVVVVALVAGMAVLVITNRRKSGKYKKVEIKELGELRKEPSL

## αIR-3 (commercial anti-IGF-1R mAb) (antibody)
[1]
  % binding: 76%
[2]
  % binding: 107%
[3]
  % binding: 97%
[4]
  % binding: 0%
[5]
  % binding: 97%
[6]
  % binding: 115%
[7]
  % binding: 0%
[8]
  % binding: 86%
[9]
  % binding: 87%
[10]
  % binding: 0%
[11]
  % binding: 52%
[12]
  % binding: 89%
[13]
  % binding: 95%

## 24-60 (commercial anti-IGF-1R mAb) (antibody)
[1]
  % binding: 79%
[2]
  % binding: 0%
[3]
  % binding: 88%
[4]
  % binding: 21%
[5]
  % binding: 0%
[6]
  % binding: 100%
[7]
  % binding: 0%
[8]
  % binding: 0%
[9]
  % binding: 88%
[10]
  % binding: 0%
[11]
  % binding: 18%
[12]
  % binding: 82%
[13]
  % binding: 100%

## human IgG (control) (antibody)
[14]
  % Positive: 2.34%
  MFI: 1.84

## Hex-hRS7 (monospecific hexavalent DNL construct of hRS7, anti-EGP-1)
[15]
  % Positive: 93.7%
  MFI: 17
[16]
  % Positive: 99.9%
  MFI: 35.7
[17]
  % Positive: 100%
  MFI: 59.6

## MAB391 (commercial mouse anti-IGF-1R monoclonal antibody, R&D clone 33255.111)
[18]
  % binding of 125I-IGF-1: 95%
[19]
  % binding of 125I-IGF-1: 54%
[7]
  % binding: 0%
[8]
  % binding: 40%
[20]
  % binding of 125I-IGF-1: 100%
[21]
  % binding of 125I-IGF-1: 38%

## 22-20 (bispecific hexavalent DNL construct: hLL2 IgG-AD2 with four hA20 Fab-DDD2) (bispecific antibody)
[22]
  % Positive: 3.1%
  MFI: 2.11
